Assay: yeast display, Sf9 membrane polyspecificity reagent, FACS + sequencing; frameworks hold sequencing errors
Summary of the method: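 Nanobodies from a synthetic yeast display library (Saccharomyces cerevisiae BJ5465), induced 36–48 hours with galactose, were stained 1 hour at 4 °C with 10% biotinylated, detergent-solubilized Sf9 membrane reagent, enriched on streptavidin microbeads, then FACS-sorted. Anti-HA (expression) and streptavidin (reagent binding) fluorescence set low and high (top ~1%) gates. Polyreactivity labels come from the gate of origin. Genes were colony-PCR amplified, MiSeq 2 × 250 sequenced and filtered by CDR length.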

Row | Sequence | polyreactivity (PSR sort gate)
1 | QVQLVESGGGLVQAGGSLSLSCAASGRIFSYNDMGWYRQAPGKERELVAAITSNDGSTYYADSVKGRFTISRDNAKNTVYLQMNSLKPVDSAVSYCTADVLFLSSYGYDYWGQGTQVTVSS | low polyreactivity
2 | QVQLVESGGGLVQAAGSLRLSCAASGSIFSANSMGWYRQAPGKERELVAAISGRGTRTYYADSVKGRFTISRDNAKYTVYLQMNSLKPEDTAVYYCNAARDRTSPEYDYWGQGTQVTVSS | high polyreactivity
3 | QVQLQESSGGLVQAGGSLRMSCAASGTNFHFHIMGWYRQAPGKEREFVAAISYGTSTYYADSVKGRFTISRDNAKNTVYLQMNSQKPEDTAVYYCAVYDYLEVYCWYWGQGTQVTVSS | low polyreactivity
4 | QVQLVESGGGLDQAGGSLRLSCAASGSIFRPYTMGWYRQAPGKERELVAAITGTCGSTRYADSVKGRFTISRDNAKNTVYLQMNSLNPEDNAVYYCAVYPPYRGRYDYRKYDSWGQGTQVTVSS | low polyreactivity
5 | QVQLVESGGGLVQAGGSLRLICAASGRTFYWNAMGWYRQAPGKERELVAAISDGGGSTYYADSVKGRFTISRDNAKNTVYLQMNSLKPEDTAVYYCNTPDNQDKPYPGYDYWGQGTQVTVSS | low polyreactivity
6 | QVQLVESGGGLVQAGGSLRLSCAASGSIFIVYAMGWYRQAPGKERELVAAISWSGGSTYYADSVKGRFTISRDNAKNTVYLQMNSLKPEDTAVYYCAAKYTLPFRDVKYYSWGQGTQVTVSS | high polyreactivity
7 | QVQLVESAGGLVQAGGSLRLSCAASGSTFYRYAMGGSRQAPGKERELVAAISSSGGRTYYADSVKGRFTISRDNAKNTVYLQMNSLKPEDTAVYFCATRVGDFHRGKRKRYEYWGQGTQVTVSS | high polyreactivity
8 | QVQLVESGGGLVQAGGSLRLSWAASGSIFFLYAMGWYRQAPAKERELVAAITSIGGSTYADSVKGRFTISRDNAKNTVYLQMNSLKPEDTAVYYCNTDEYPLTVQVQYYYWGQGTEVTVSS | low polyreactivity
9 | QVQLVESGGGLVQAGGSLRLSCAASGRIFGVYGMGWYRQAPGKERELVAAITISGRTNYADSVKGRFTISRDNAKNTVYLQMNSLKPEDTAVYYCAAEKRKLFQGVARYRYEYWGQGTQVTVSS | low polyreactivity
10 | QVQLVESGGGLVQAGGSLRLSCAASGSTFCRNAMGWYRQAPGKEREFVAVISISSGTTYADSVKGRFTISRDNAKNTVYLQMNSVKPVDTAVYYCAAAIGVYYIDYRYLGTVEYWGQGTQVNVSS | low polyreactivity
11 | QVQLQESGSGLVQAGGSLRLSCAASGAIFPAYLMGWYRQPPGKERELVAGISYGSITYCADSVKGRFNISRDNAKNTVYLQMNSLKPEDTAVYYCAVWRPGGDEYYYWGQGTQVTVSS | low polyreactivity
12 | QVQLVESGGGLVQAGGSLRLSCAASGFTLYRNAMGWNRQAPGKERELVAAISSSGGRTYYADSVKGRFTISRDNAKNTVYLQMNSLKPEDTAVYYCAADFYRYGPQLGYWGQATQVTVSS | high polyreactivity
13 | QVQLVESGGGLVQAGGRLRLSCAASGSIFSRYAMGWYRQAPGKERELVAAITSRGSGTNYADSVKGRFTISRDNAKNTVYLQMNSLKPEDTAVYYCNAARLPRLGWPTPYLYDYWGQGTQVTVSS | high polyreactivity
14 | QVQLVESGGGLDQAGGSLRLSCAASGITFQWYTMGWYIQAPGKERDLVATISSGGSTNYADSVKGRFTISRDNAKNTVYLQMKSLKPEDTAVYYCAKQPTVYHHYGLGYWGQGTQVTVSS | low polyreactivity
15 | QVQLVESGGGLVQAGGSLPLSSAASGFTFYRNAMGWYRQVPGKERELVAAITTRGVTTYYADSVKGRFTIARDYAKNTVYVLMNCLKPVDTAVYYFAAKKSLIGDYWGQGTQVTVSS | high polyreactivity
16 | QVQLVESCGGLVQAGGSLRLSCAASGSTFRFNTMGWYRQPPGKERELVAAITRGGSTNYADSVKGRFTISRDNAKNTVYLQMNSLKPEDTAVYFCAAGYCWTFDYDYWGQGTQVTVSS | low polyreactivity
17 | QVQLVESGGGLVQAGGSLRLSCAASGITFVRNAMGWYRQAPGKERELVAAISGRGGITYYADSVKGRFTISRDNAKNTVYFQMNSLKPEDTAVYYCAASSAGSSYNYWGQGSQVTVSS | high polyreactivity

Source: the nanobody polyreactivity screen of Harvey et al. (2022)
